“Also recorded” adds a separate entry of the source.

For one assay, the target named is T1, E7-Rb complex (Human papillomavirus type 18, UniProt P06788).
T1 construct: made in house; host or cells: bacteria (MBP-E7); baculovirus system (Rb)
Kind of assay: ELISA assay of competition for E7-Rb complex formation. Type of assay: binding. To be noted: MBP-E7 coated plate, 100 ng Rb, increasing peptide concentrations. The method, then: To examine the effect of p107 peptide binding upon the E7-Rb interaction, an ELISA assay was used to monitor E7-Rb complex formation. 96-well cluster plates were coated with either MBP-E7 protein (O) or MBP alone as a control (.circle-solid.). The plates were incubated with increasing concentrations of baculovirus expressed Rb which was detected with monoclonal antibody αRb349 (Pharmingen, San Diego Calif.) (FIG. 4A). In a separate experiment, 96-well cluster plates were coated with MBP-E7 protein and incubated with 100 ng Rb in the presence of increasing concentrations of p107 9mer peptide (FIG. 4B). Binding is quantitated as an increase in optical density at 405 nm. […] A corresponding peptide from Rb protein (sequence MCSMYGICK [SEQ ID NO: 2]) also binds to the E7 oncoprotein and competes for the E7-Rb interaction.
A general note: An ELISA detects its analyte on a solid surface through an enzyme-linked reagent.

A further assay addresses T2, HPV18-E7 protein (Human papillomavirus type 18, UniProt P06788).
T2 construct: made in house
Kind of assay: biochemical. It counts as binding. Conditions: E7 type and method not stated. As to the method: The association of bacterially expressed HPV18-E7 protein with the p107 30mer peptide was analyzed using an ELISA assay. In the experiment depicted in FIG. 3A, a 96-well cluster plate was coated with p107 30mer peptide and incubated with increasing concentration of a MBP-E7 fusion protein or the MBP protein as a control. […] In the experiment depicted in FIG. 3B, MBP-E7 fusion protein (100 ng) was incubated with a p107 30mer peptide-coated plate in the presence of increasing concentrations of free p107 9mer peptide.

T1 sequence (P06788 whole entry, one chain of several): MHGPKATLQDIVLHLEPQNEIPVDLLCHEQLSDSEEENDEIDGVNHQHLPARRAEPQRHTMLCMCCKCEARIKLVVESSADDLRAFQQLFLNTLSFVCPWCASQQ
T2 sequence (P06788 whole entry): as the sequence (P06788 whole entry, one chain of several) above

As for “MCSMYGICK [nine amino acid peptide derived from Rb]”, the “competition for E7 association with Rb” value with E7-Rb complex is reported as “competes; also recorded: inhibits E7 binding to Rb”. Further, the “binding to the E7 oncoprotein” value with HPV18-E7 protein is on record as “binds”.

The values are drawn from patent US5625031A, “Peptide inhibitors of the p33^cdk2 and p34^cdc2 cell cycle regulatory kinases and human papillomavirus E7 oncoprotein” (Bristol-Myers Squibb Company, priority 1994, dated 1997).
